The values below come from PMC9142594.

Assay in all cases: SPR; Biacore T200; His-tagged histones immobilised on sensor chip NTA; AGEs at 6.25, 12.5, 25, 50 and 100 µg/ml, single-cycle kinetics; 10 mM HEPES, 150 mM NaCl, 0.05% Tween-20; 25 °C; 30 µl/min
In general terms: Surface plasmon resonance follows binding to a sensor surface in real time, without labels.

The target in assay [1] is His-tagged human histone H3 (human) (UniProt P68431).
Assay [2] deals with His-tagged human histone H2B (human) (UniProt P06899).
Assay [3] deals with His-tagged human histone H2A (human) (UniProt P04908).

With “advanced glycation end products (AGEs): bovine serum albumin modified with dehydroascorbic acid (DHA) (from UniProt P02769 25-607) (ligand)”, the dissociation constant Kd in assay [1] is 0.0965 µM; in assay [2], 0.0672 µM; in assay [3], 0.0855 µM.

As usually defined, the Kd is the constant that tells how readily two partners part at equilibrium. A low value points to tighter binding.
